According to patent publication US20240034774A1:

Legend:
Test in all cases: cell-based or functional assay
[1] = target: HIV-1 envelope glycoprotein gp120 of virus 92US727 (HIV-1)
[2] = target: HIV-1 envelope glycoprotein gp120 of virus VS001 (HIV-1)
[3] = target: HIV-1 envelope glycoprotein gp120 of virus 7141 (HIV-1)

Binder	neutralization IC50 [1]	neutralization IC50 [2]	neutralization IC50 [3]
3.1.9-1 (antibody, human IgG1, kappa, V domains shown) VH: QVQLLQSGAAVTKPGASVRVSCEASGYNIRDYFIHWWRQAPGQGLQWVGWINPKTGQPNNPRQFQGRVSLTRHASWDFDTFSFYMDLKALRSDDTAVYFCARQRSDYWDFDVWGSGTQVTVSS VL: DIQMTQSPSSLSARVGDTATITCQANGYLNWYQQRRGKAPKLLIYDGSKLERGVPARFSGRRWGQEYNLTINNLQPEDVATYFCQVYEFFGPGTRLDLKR	3.54 µg/mL	0.16 µg/mL	4.35 µg/mL
2.2.9-1 (antibody, human IgG1, kappa, V domains shown) VH: QVHLSQSGAAVTKPGASVRVSCEASGYKIRDHFIHWWRQAPGQGLQWVGWINPKTGQPNNPRQFQGRVSLTRHASWDFDTFSFYMDLKAVRSDDTAIYFCARQRSDYWDFDVWGSGTQVTVSS VL: DIQMTQSPSSLSARVGDTATITCQANGYLNWYQQRRGKAPKLLIYDGSKLERGVPARFSGRRWGQEYNLTINNLQPEDVATYFCQVYEFFGPGTRLDLKR	13.1 µg/mL	0.15 µg/mL	1.75 µg/mL
2.3.9-1 (antibody, human IgG1, kappa, V domains shown) VH: QVHLSQSGAAVTKPGASVRVSCEASGYNIRDYFIHWWRQAPGQGLQWVGWINPKTGQPNNPRQFQGRVSLTRHASWDFDTFSFYMDLKAVRSDDTAIYFCARQRSDYWDFDVWGSGTQVTVSS VL: DIQMTQSPSSLSARVGDTATITCQANGYLNWYQQRRGKAPKLLIYDGSKLERGVPARFSGRRWGQEYNLTINNLQPEDVATYFCQVYEFFGPGTRLDLKR	11.1 µg/mL	0.22 µg/mL	2.56 µg/mL
3.1.12-1 (antibody, human IgG1, kappa, V domains shown) VH: QVQLLQSGAAVTKPGASVRVSCEASGYNIRDYFIHWWRQAPGQGLQWVGWINPKTGQPNNPRQFQGRVSLTRHASWDFDTFSFYMDLKALRSDDTAVYFCARQRSDYWDFDVWGSGTQVTVSS VL: DIQMTQSPSSLSARVGDTATITCQANGYLNWYQQRRGKAPKLLIYDGSKLERGVPARFSGRRWGQEYILTINNLQPEDVATYFCQVYEFFGPGTRLDLKR	> 41 µg/mL	2.41 µg/mL	24.5 µg/mL
2.2.12-1 (antibody, human IgG1, kappa, V domains shown) VH: QVHLSQSGAAVTKPGASVRVSCEASGYKIRDHFIHWWRQAPGQGLQWVGWINPKTGQPNNPRQFQGRVSLTRHASWDFDTFSFYMDLKAVRSDDTAIYFCARQRSDYWDFDVWGSGTQVTVSS VL: DIQMTQSPSSLSARVGDTATITCQANGYLNWYQQRRGKAPKLLIYDGSKLERGVPARFSGRRWGQEYILTINNLQPEDVATYFCQVYEFFGPGTRLDLKR	> 50 µg/mL	2.1 µg/mL	7.08 µg/mL
2.3.12-1 (antibody, human IgG1, kappa, V domains shown) VH: QVHLSQSGAAVTKPGASVRVSCEASGYNIRDYFIHWWRQAPGQGLQWVGWINPKTGQPNNPRQFQGRVSLTRHASWDFDTFSFYMDLKAVRSDDTAIYFCARQRSDYWDFDVWGSGTQVTVSS VL: DIQMTQSPSSLSARVGDTATITCQANGYLNWYQQRRGKAPKLLIYDGSKLERGVPARFSGRRWGQEYILTINNLQPEDVATYFCQVYEFFGPGTRLDLKR	> 50 µg/mL	1.92 µg/mL	23.8 µg/mL
2.3.7-1 (antibody, human IgG1, kappa, V domains shown) VH: QVHLSQSGAAVTKPGASVRVSCEASGYNIRDYFIHWWRQAPGQGLQWVGWINPKTGQPNNPRQFQGRVSLTRHASWDFDTFSFYMDLKAVRSDDTAIYFCARQRSDYWDFDVWGSGTQVTVSS VL: DIQMTQSPSSLSARVGDRATITCQANGYLNWYQQRRGKAPKLLIYDGSKLERGVPARFSGSRWGQEYTLTISSLQPEDVATYFCQVYEFFGPGTRLDLKR	> 50 µg/mL	0.47 µg/mL	5.08 µg/mL
1.1.119-1 (antibody, human IgG1, kappa, V domains shown) VH: QVQLLQSGAAVTKPGASVRVSCEASGYNIRDYFIHWWRQAPGQGLQWVGWINPKTGQPNNPRQFQGRVSLTRHASWDFDTFSFYMDLKALRSDDTAVYFCARQRSDYWDFDVWGSGTQVTVSS VL: DIQMTQSPSSLSASVGDRATITCQANGYLNWYQQRRGKAPKLLIYDGSKLERGVPSRFSGSRWGQEYTLTISSLQPEDIATYFCQVYEFFGPGTRLDLKR	> 50 µg/mL	0.39 µg/mL	6.92 µg/mL
1.1.104-1 (antibody, human IgG1, kappa, V domains shown) VH: QVQLLQSGAAVTKPGASVRVSCEASGYNIRDYFIHWWRQAPGQGLQWVGWINPKTGQPNNPRQFQGRVSLTRHASWDFDTFSFYMDLKALRSDDTAVYFCARQRSDYWDFDVWGSGTQVTVSS VL: DIQMTQSPSSLSASVGDTATITCQANGYLNWYQQRRGKAPKLLIYDGSKLERGVPSRFSGRRWGQEYTLTINNLQPEDIATYFCQVYEFFGPGTRLDLKR	> 50 µg/mL	0.45 µg/mL	5.13 µg/mL
3.1.13-1 (antibody, human IgG1, kappa, V domains shown) VH: QVQLLQSGAAVTKPGASVRVSCEASGYNIRDYFIHWWRQAPGQGLQWVGWINPKTGQPNNPRQFQGRVSLTRHASWDFDTFSFYMDLKALRSDDTAVYFCARQRSDYWDFDVWGSGTQVTVSS VL: DIQMTQSPSSLSARVGDRATITCQANGYLNWYQQRRGKAPKLLIYDGSKLERGVPARFSGSRWGQEYILTISSLQPEDVATYFCQVYEFFGPGTRLDLKR	> 21 µg/mL	0.56 µg/mL	13.2 µg/mL
3.1.15-1 (antibody, human IgG1, kappa, V domains shown) VH: QVQLLQSGAAVTKPGASVRVSCEASGYNIRDYFIHWWRQAPGQGLQWVGWINPKTGQPNNPRQFQGRVSLTRHASWDFDTFSFYMDLKALRSDDTAVYFCARQRSDYWDFDVWGSGTQVTVSS VL: DIQMTQSPSSLSARVGDTATITCQANGYLNWYQQRRGKAPKLLIYDGSKLERGVPARFSGRRWGQEYTLTINNLQPEDVATYFCQVYEFFGPGTRLDLKR	> 33 µg/mL	0.49 µg/mL	9.1 µg/mL
2.2.7-1 (antibody, human IgG1, kappa, V domains shown) VH: QVHLSQSGAAVTKPGASVRVSCEASGYKIRDHFIHWWRQAPGQGLQWVGWINPKTGQPNNPRQFQGRVSLTRHASWDFDTFSFYMDLKAVRSDDTAIYFCARQRSDYWDFDVWGSGTQVTVSS VL: DIQMTQSPSSLSARVGDRATITCQANGYLNWYQQRRGKAPKLLIYDGSKLERGVPARFSGSRWGQEYTLTISSLQPEDVATYFCQVYEFFGPGTRLDLKR	> 50 µg/mL	0.27 µg/mL	1.58 µg/mL
2.3.13-1 (antibody, human IgG1, kappa, V domains shown) VH: QVHLSQSGAAVTKPGASVRVSCEASGYNIRDYFIHWWRQAPGQGLQWVGWINPKTGQPNNPRQFQGRVSLTRHASWDFDTFSFYMDLKAVRSDDTAIYFCARQRSDYWDFDVWGSGTQVTVSS VL: DIQMTQSPSSLSARVGDRATITCQANGYLNWYQQRRGKAPKLLIYDGSKLERGVPARFSGSRWGQEYILTISSLQPEDVATYFCQVYEFFGPGTRLDLKR	> 38 µg/mL	1.5 µg/mL	15.5 µg/mL
2.2.13-1 (antibody, human IgG1, kappa, V domains shown) VH: QVHLSQSGAAVTKPGASVRVSCEASGYKIRDHFIHWWRQAPGQGLQWVGWINPKTGQPNNPRQFQGRVSLTRHASWDFDTFSFYMDLKAVRSDDTAIYFCARQRSDYWDFDVWGSGTQVTVSS VL: DIQMTQSPSSLSARVGDRATITCQANGYLNWYQQRRGKAPKLLIYDGSKLERGVPARFSGSRWGQEYILTISSLQPEDVATYFCQVYEFFGPGTRLDLKR	> 50 µg/mL	1.48 µg/mL	3.8 µg/mL
1.1.117-1 (antibody, human IgG1, kappa, V domains shown) VH: QVQLLQSGAAVTKPGASVRVSCEASGYNIRDYFIHWWRQAPGQGLQWVGWINPKTGQPNNPRQFQGRVSLTRHASWDFDTFSFYMDLKALRSDDTAVYFCARQRSDYWDFDVWGSGTQVTVSS VL: DIQMTQSPSSLSASVGDTATITCQANGYLNWYQQRRGKAPKLLIYDGSKLERGVPSRFSGRRWGQEYILTINNLQPEDIATYFCQVYEFFGPGTRLDLKR	> 50 µg/mL	3.03 µg/mL	16.9 µg/mL
3.1.7-1 (antibody, human IgG1, kappa, V domains shown) VH: QVQLLQSGAAVTKPGASVRVSCEASGYNIRDYFIHWWRQAPGQGLQWVGWINPKTGQPNNPRQFQGRVSLTRHASWDFDTFSFYMDLKALRSDDTAVYFCARQRSDYWDFDVWGSGTQVTVSS VL: DIQMTQSPSSLSARVGDRATITCQANGYLNWYQQRRGKAPKLLIYDGSKLERGVPARFSGSRWGQEYTLTISSLQPEDVATYFCQVYEFFGPGTRLDLKR	> 50 µg/mL	0.3 µg/mL	5.65 µg/mL
2.2.15-1 (antibody, human IgG1, kappa, V domains shown) VH: QVHLSQSGAAVTKPGASVRVSCEASGYKIRDHFIHWWRQAPGQGLQWVGWINPKTGQPNNPRQFQGRVSLTRHASWDFDTFSFYMDLKAVRSDDTAIYFCARQRSDYWDFDVWGSGTQVTVSS VL: DIQMTQSPSSLSARVGDTATITCQANGYLNWYQQRRGKAPKLLIYDGSKLERGVPARFSGRRWGQEYTLTINNLQPEDVATYFCQVYEFFGPGTRLDLKR	> 50 µg/mL	0.37 µg/mL	1.99 µg/mL
2.3.15-1 (antibody, human IgG1, kappa, V domains shown) VH: QVHLSQSGAAVTKPGASVRVSCEASGYNIRDYFIHWWRQAPGQGLQWVGWINPKTGQPNNPRQFQGRVSLTRHASWDFDTFSFYMDLKAVRSDDTAIYFCARQRSDYWDFDVWGSGTQVTVSS VL: DIQMTQSPSSLSARVGDTATITCQANGYLNWYQQRRGKAPKLLIYDGSKLERGVPARFSGRRWGQEYTLTINNLQPEDVATYFCQVYEFFGPGTRLDLKR	> 50 µg/mL	0.85 µg/mL	5.93 µg/mL
1.1.118-1 (antibody, human IgG1, kappa, V domains shown) VH: QVQLLQSGAAVTKPGASVRVSCEASGYNIRDYFIHWWRQAPGQGLQWVGWINPKTGQPNNPRQFQGRVSLTRHASWDFDTFSFYMDLKALRSDDTAVYFCARQRSDYWDFDVWGSGTQVTVSS VL: DIQMTQSPSSLSASVGDRATITCQANGYLNWYQQRRGKAPKLLIYDGSKLERGVPSRFSGSRWGQEYILTISSLQPEDIATYFCQVYEFFGPGTRLDLKR	> 50 µg/mL	2.4 µg/mL	20.2 µg/mL
